{
  "source": "paper PMC1634882",
  "key": {"[1]": {"molecular_target": "Omp85 from Escherichia coli, refolded in vitro from inclusion bodies (E. coli) (UniProt P0A940)"}, "[2]": {"molecular_target": "PorA in cell envelopes of N. meningitidis strain HB-1 (N. meningitidis (endogenous in HB-1)) (UniProt E6MZM0)", "test": "semi-native SDS-PAGE; cell envelopes of N. meningitidis HB-1 or of E. coli expressing PorA or PorA-Q, samples not boiled, blot probed with anti-PorA antibody MN5C11G"}, "[3]": {"molecular_target": "Omp85 from Escherichia coli, refolded in vitro from inclusion bodies (E. coli) (UniProt P0A940)", "remark": "listed apart in the source"}, "[4]": {"molecular_target": "PorA-Q mutant protein (penultimate Lys of PorA substituted by Gln) expressed in E. coli (N. meningitidis) (UniProt E6MZM0)", "test": "semi-native SDS-PAGE; cell envelopes of N. meningitidis HB-1 or of E. coli expressing PorA or PorA-Q, samples not boiled, blot probed with anti-PorA antibody MN5C11G"}},
  "data": [
    {"substance": "maltoporin LamB from E. coli, denatured (from UniProt P02943 26-446) (natural protein)", "values": [
      {"measurement": "increase in conductivity per 0.12-nS Omp85 channel in planar lipid bilayers (voltage ramps) upon addition of 80 pM denatured LamB", "setting": "[1]", "value": 0.069, "unit": "nS"},
      {"measurement": "percent increase in conductivity per 0.12-nS Omp85 channel upon addition of 80 pM denatured LamB", "setting": "[1]", "value": "56 to 58", "unit": "%"}
    ]},
    {"substance": "PorA in cell envelopes of N. meningitidis strain HB-1 (from UniProt E6MZM0 20-331) (natural protein)", "values": [
      {"measurement": "stoichiometry N", "setting": "[2]", "value": 3}
    ]},
    {"substance": "synthetic peptide corresponding to the C-terminal 12 amino acid residues of PhoE (CterPhoE)", "values": [
      {"measurement": "increase in conductivity per 0.12-nS Omp85 channel in planar lipid bilayers; dose-dependent opening at μM concentrations of the peptide, value at 96 μM", "setting": "[3]", "value": 0.6, "unit": "nS"}
    ]},
    {"substance": "denatured E. coli PhoE porin (from UniProt P02932 22-351) (natural protein)", "values": [
      {"measurement": "increase in conductivity per 0.12-nS Omp85 channel in planar lipid bilayers (voltage ramps); dose-dependent opening at pM concentrations of denatured PhoE, value at 80 pM", "setting": "[1]", "value": 0.067, "unit": "nS"},
      {"measurement": "percent increase in conductivity per 0.12-nS Omp85 channel upon addition of 80 pM denatured PhoE", "setting": "[1]", "value": "56 to 58", "unit": "%"}
    ]},
    {"substance": "PorA-Q mutant protein (penultimate Lys of PorA substituted by Gln) expressed in E. coli (from UniProt E6MZM0 20-331) (natural protein)", "values": [
      {"measurement": "stoichiometry N", "setting": "[4]", "value": 3}
    ]}
  ]
}
